One series addresses T1, SE (His-tagged) (Arabidopsis thaliana, UniProt Q9ZVD0 1-720).
T1 sequence: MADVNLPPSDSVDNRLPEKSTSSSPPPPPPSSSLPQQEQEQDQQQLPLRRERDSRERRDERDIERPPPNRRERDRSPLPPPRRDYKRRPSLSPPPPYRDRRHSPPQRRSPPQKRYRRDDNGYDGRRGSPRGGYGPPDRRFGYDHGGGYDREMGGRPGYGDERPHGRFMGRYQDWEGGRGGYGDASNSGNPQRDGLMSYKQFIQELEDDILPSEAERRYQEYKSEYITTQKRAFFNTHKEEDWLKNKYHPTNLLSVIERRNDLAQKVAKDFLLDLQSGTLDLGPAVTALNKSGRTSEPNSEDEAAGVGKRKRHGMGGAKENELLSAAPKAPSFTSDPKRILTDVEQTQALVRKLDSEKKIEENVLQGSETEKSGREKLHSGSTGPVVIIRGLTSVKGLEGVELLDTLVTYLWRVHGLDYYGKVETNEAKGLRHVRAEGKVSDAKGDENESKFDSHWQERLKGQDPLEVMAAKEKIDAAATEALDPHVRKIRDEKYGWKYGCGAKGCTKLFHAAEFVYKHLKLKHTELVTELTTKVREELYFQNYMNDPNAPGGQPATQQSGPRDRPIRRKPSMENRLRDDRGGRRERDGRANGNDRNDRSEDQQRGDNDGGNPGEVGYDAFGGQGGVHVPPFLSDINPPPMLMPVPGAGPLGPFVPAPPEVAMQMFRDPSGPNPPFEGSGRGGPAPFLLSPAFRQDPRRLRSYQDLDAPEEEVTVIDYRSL
Put plainly: SPR; 50 mM NaCl, 20 nM protein; SPR (Biacore T100): 20 mM Tris-HCl pH 7.0, 50 or 150 mM NaCl, 2 mM β-ME (0.005% P20 for SE variants); proteins 42-43 nM (Fig 2E), SE 20 nM (Fig 4), 16 nM DCL1 for complex; temperature not stated. The conditions noted are these: protein: recombinant; tags: N-terminal His6; vector also has inserted myc and Strep-tag II; label: 5'-biotin on strand 1; fork: 40 bp duplex; 20-nt 3' tail of strand 1 and 20-nt 5' tail of strand 2 unpaired; other end blunt.

A further series has as its target T2, SE (untagged) (Arabidopsis thaliana, UniProt Q9ZVD0 1-720).
T2 sequence: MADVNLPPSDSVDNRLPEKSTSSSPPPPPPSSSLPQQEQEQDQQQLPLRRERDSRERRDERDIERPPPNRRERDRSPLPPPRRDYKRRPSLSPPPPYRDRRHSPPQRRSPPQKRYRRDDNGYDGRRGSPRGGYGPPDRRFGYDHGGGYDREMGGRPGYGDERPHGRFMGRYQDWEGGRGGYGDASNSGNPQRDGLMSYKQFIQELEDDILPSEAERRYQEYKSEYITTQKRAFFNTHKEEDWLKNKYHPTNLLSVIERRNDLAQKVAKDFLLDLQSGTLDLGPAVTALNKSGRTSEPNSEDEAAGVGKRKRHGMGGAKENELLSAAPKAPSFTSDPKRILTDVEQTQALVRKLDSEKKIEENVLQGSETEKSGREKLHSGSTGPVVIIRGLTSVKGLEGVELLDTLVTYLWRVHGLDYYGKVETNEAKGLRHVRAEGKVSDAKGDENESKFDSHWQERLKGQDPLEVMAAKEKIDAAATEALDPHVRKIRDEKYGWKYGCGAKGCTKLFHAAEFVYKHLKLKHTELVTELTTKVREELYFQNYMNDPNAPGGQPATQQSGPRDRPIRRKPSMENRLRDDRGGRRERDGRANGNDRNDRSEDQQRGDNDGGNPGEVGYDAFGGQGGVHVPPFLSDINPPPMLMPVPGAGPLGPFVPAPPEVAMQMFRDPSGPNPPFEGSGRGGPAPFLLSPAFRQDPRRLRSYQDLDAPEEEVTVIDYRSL
Put plainly: SPR; 50 mM NaCl; weaker than DCL1, rapid dissociation; SPR (Biacore T100): 20 mM Tris-HCl pH 7.0, 50 or 150 mM NaCl, 2 mM β-ME (0.005% P20 for SE variants); proteins 42-43 nM (Fig 2E), SE 20 nM (Fig 4), 16 nM DCL1 for complex; temperature not stated. The conditions noted are these: protein: recombinant; tags: none (His6-StrepII-SUMOstar removed); label: 5'-biotin on strand 1; fork: 40 bp duplex; 20-nt 3' tail of strand 1 and 20-nt 5' tail of strand 2 unpaired; other end blunt.

The target in another series is T3, SE143-720 (Arabidopsis thaliana, UniProt Q9ZVD0 143-720, del1-142).
T3 sequence: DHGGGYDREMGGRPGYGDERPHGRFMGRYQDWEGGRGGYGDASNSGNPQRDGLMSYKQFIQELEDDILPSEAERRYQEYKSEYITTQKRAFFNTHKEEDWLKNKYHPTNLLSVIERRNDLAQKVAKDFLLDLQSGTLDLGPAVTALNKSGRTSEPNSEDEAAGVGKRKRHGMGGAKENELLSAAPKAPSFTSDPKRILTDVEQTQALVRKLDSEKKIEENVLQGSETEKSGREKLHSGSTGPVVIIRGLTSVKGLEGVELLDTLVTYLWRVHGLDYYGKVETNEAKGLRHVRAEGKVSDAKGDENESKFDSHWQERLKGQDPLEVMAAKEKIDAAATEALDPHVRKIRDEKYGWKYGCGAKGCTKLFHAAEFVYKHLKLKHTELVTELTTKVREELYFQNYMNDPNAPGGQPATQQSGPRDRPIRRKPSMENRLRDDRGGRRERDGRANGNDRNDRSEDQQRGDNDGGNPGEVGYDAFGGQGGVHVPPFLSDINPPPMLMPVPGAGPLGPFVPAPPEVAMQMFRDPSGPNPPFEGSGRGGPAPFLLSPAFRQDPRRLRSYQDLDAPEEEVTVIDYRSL
Kind of series: SPR; 50 mM NaCl, 20 nM protein; SPR (Biacore T100): 20 mM Tris-HCl pH 7.0, 50 or 150 mM NaCl, 2 mM β-ME (0.005% P20 for SE variants); proteins 42-43 nM (Fig 2E), SE 20 nM (Fig 4), 16 nM DCL1 for complex; temperature not stated. The conditions noted are these: protein: recombinant; tags: N-terminal His6; vector also has inserted myc and Strep-tag II; label: 5'-biotin on strand 1; fork: 40 bp duplex; 20-nt 3' tail of strand 1 and 20-nt 5' tail of strand 2 unpaired; other end blunt.

The target of a further series is DCL1;SE (His-tagged) (Arabidopsis thaliana;Arabidopsis …, UniProt Q9SP32;Q9ZVD0 1-1909;1-720, |). Kind of series: SPR; SE injected on preformed DCL1/RNA complex, 50 mM NaCl; SE:DCL1 2.4:1; SPR (Biacore T100): 20 mM Tris-HCl pH 7.0, 50 or 150 mM NaCl, 2 mM β-ME (0.005% P20 for SE variants); proteins 42-43 nM (Fig 2E), SE 20 nM (Fig 4), 16 nM DCL1 for complex; temperature not stated. The settings on record: protein: recombinant;recombinant; tags: none (His6-StrepII-SUMOstar removed);N-terminal His6; vector also has inserted myc and Strep-tag II; label: 5'-biotin on strand 1; fork: 40 bp duplex; 20-nt 3' tail of strand 1 and 20-nt 5' tail of strand 2 unpaired; other end blunt.

The target of another series is DCL1;SE143-720 (Arabidopsis thaliana;Arabidopsis …, UniProt Q9SP32;Q9ZVD0 1-1909;143-720, |del1-142). Kind of series: SPR; SE143-720 injected on preformed DCL1/RNA complex, 50 mM NaCl; SPR (Biacore T100): 20 mM Tris-HCl pH 7.0, 50 or 150 mM NaCl, 2 mM β-ME (0.005% P20 for SE variants); proteins 42-43 nM (Fig 2E), SE 20 nM (Fig 4), 16 nM DCL1 for complex; temperature not stated. The conditions noted are these: protein: recombinant;recombinant; tags: none (His6-StrepII-SUMOstar removed);N-terminal His6; vector also has inserted myc and Strep-tag II; label: 5'-biotin on strand 1; fork: 40 bp duplex; 20-nt 3' tail of strand 1 and 20-nt 5' tail of strand 2 unpaired; other end blunt.

The target in another series is DCL1 (Arabidopsis thaliana, UniProt Q9SP32 1-1909). Put plainly: SPR; 50 mM NaCl; SPR (Biacore T100): 20 mM Tris-HCl pH 7.0, 50 or 150 mM NaCl, 2 mM β-ME (0.005% P20 for SE variants); proteins 42-43 nM (Fig 2E), SE 20 nM (Fig 4), 16 nM DCL1 for complex; temperature not stated. The conditions noted are these: protein: recombinant; tags: none (His6-StrepII-SUMOstar removed); chain copies: 3; label: 5'-biotin on strand 1; fork: 40 bp duplex; 20-nt 3' tail of strand 1 and 20-nt 5' tail of strand 2 unpaired; other end blunt.
Sequence of DCL1 (Q9SP32 whole entry): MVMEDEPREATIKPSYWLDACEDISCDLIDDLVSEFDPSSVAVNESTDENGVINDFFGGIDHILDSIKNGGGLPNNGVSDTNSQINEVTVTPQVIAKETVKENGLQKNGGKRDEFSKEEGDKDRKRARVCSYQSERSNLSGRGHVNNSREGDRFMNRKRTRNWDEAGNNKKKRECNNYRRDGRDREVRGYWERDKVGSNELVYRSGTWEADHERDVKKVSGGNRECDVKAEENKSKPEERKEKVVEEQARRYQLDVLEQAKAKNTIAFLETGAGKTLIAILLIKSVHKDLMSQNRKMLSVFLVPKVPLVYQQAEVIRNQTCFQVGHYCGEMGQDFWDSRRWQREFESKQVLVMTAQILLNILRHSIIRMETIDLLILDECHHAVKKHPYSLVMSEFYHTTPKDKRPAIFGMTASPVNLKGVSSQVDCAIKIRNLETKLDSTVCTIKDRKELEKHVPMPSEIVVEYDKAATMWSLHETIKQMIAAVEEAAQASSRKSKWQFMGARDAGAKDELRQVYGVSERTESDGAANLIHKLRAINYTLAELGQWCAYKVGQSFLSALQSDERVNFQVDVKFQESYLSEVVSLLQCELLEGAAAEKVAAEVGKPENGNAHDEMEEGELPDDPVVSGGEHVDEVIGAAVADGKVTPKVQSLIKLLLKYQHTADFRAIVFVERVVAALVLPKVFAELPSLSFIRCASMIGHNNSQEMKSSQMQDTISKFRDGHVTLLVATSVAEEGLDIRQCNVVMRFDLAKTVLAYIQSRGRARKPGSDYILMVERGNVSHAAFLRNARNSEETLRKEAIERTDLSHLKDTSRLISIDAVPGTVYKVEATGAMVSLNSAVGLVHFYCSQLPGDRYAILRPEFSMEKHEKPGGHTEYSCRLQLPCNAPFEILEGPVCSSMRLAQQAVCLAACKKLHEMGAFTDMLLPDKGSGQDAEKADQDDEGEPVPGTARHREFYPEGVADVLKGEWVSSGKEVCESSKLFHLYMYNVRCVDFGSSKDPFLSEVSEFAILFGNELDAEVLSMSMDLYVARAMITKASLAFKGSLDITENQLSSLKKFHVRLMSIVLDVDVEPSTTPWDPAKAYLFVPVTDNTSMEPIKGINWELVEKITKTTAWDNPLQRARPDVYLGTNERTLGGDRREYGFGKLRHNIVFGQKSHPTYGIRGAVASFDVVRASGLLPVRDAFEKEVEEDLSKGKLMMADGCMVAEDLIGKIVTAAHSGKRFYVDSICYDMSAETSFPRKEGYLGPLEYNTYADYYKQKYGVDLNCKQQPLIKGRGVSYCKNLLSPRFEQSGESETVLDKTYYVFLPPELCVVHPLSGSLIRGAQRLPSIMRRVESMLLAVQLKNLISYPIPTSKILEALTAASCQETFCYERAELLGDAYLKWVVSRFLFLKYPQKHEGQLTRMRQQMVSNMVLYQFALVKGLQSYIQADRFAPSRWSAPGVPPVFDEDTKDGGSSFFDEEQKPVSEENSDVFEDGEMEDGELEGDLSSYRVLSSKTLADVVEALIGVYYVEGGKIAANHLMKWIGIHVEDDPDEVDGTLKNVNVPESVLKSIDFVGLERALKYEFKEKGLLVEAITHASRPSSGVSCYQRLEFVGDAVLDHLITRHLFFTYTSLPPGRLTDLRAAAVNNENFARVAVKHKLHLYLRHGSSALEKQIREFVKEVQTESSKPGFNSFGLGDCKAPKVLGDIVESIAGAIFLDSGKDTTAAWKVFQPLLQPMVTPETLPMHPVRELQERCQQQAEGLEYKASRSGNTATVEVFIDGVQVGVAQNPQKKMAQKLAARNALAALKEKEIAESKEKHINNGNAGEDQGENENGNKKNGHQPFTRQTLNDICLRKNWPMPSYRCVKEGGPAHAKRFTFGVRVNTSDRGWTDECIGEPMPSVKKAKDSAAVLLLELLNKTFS

Sequence of DCL1;SE143-720 (Q9SP32 whole entry, stated change not applied, one chain of several): as the sequence (Q9SP32 whole entry) above
Sequence of DCL1;SE (His-tagged) (Q9SP32 whole entry, one chain of several): as the sequence (Q9SP32 whole entry) above

B1: forked-RNA (dsRNA)
RNA 1: CAACCCAAGAUAGAUCAUGCAGGCAGCUUCAUCAGAUGCCGCUCCCUCUUUUUUUCUCUA
RNA 2: GCUCCCUCUUUUUUUCUCUAGGCAUCUGAUGAAGCUGCCUGCAUGAUCUAUCUUGGGUUG
In the case of B1, the binding result with SE (His-tagged), in the series with SE (untagged), with DCL1;SE (His-tagged) and with DCL1 was “binds” in each case. In addition, the binding signal in the series with SE143-720 was 6 fold reduction vs wild-type SE; with DCL1;SE143-720, 2 fold less RUmax vs wild-type SE.

The values are drawn from paper PMC3799435, “Dissecting the interactions of SERRATE with RNA and DICER-LIKE 1 in Arabidopsis microRNA precursor processing” (Nucleic Acids Research, 2013).
